Among the data in publication PMC7135998 are methylation of purified tubulin by GST-SET8 ([3H]AdoMet, autoradiogram) with increasing concentrations of the LSF inhibitor FQI1, up to 100 μM values, retold here.

The target in the assay is α-tubulin of purified porcine brain tubulin (porcine) (UniProt P02550).
UniProt P02550, sequence (P02550 whole entry): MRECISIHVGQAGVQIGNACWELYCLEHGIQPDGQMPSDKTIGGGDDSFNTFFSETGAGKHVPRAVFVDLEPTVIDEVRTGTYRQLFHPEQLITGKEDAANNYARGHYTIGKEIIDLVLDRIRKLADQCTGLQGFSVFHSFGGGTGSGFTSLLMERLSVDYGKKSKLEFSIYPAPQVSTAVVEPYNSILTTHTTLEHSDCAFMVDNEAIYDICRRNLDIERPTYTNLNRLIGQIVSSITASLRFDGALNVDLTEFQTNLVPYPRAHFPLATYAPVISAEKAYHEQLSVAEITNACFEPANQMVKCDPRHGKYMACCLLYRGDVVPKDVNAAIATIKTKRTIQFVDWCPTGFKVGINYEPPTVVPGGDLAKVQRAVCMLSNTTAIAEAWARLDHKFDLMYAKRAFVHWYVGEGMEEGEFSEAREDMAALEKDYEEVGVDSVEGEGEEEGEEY

Take “LSF present in purified porcine brain tubulin preparations (natural protein)”: the methylation of purified tubulin by GST-SET8 ([3H]AdoMet, autoradiogram) with increasing concentrations of the LSF inhibitor FQI1, up to 100 μM came to 3 fold.
